The source of these data is US20160074488A1 (UNIVERSITY OF CHICAGO, published 2016).

Sequences and labels used below:
B1: Q11 β-sheet fibrillizing peptide (assembled as Q11 nanofibers, gels or microgels) (peptide)
peptide: QQKFQFQFEQQ
notes: Synthetic peptide; stands in the assays as a supramolecular nanofiber of many copies; also called Q11 gels; Q11 microgels
B2: Tryptophan-terminated βTail (peptide)
peptide: WGSGSMALKVELEKLKSELVVLHSELHKLKSEL
notes: Synthetic peptide; also called W-βTail; W-βT
B3: HK-Q11 β-sheet fibrillizing peptide (nanofibers) (peptide)
peptide: QQKFQFQFHQQ
notes: Synthetic peptide assembled into nanofibers

For data set [1], the target named is gold-labeled streptavidin (streptavidin-5 nm gold particles, Invitrogen cat. # A32360) (UniProt P22629 37-163, limits assumed, bound to 5 nm gold particles). Description: gold TEM.
Data set [2] concerns the molecule itself. The experiment in a line: circular dichroism (FIGS. 1B-C).
Data set [3] deals with T1, βTail-cutinase (fusion of βTail and the fungal enzyme cutinase).
T1 construct: also called βT-cut
The experiment in a line: loss of protein from the supernatant (µBCA).

For data set [4], the target named is B1. The experiment in a line: loss of tryptophan fluorescence from the supernatant.
Data set [5] deals with the molecule itself. The experiment in a line: TEM and thioflavin T fluorescence.
The target in data set [6] is B1. Description: circular dichroism. In general terms: CD spectra are sensitive to the conformation of chiral molecules.

gold-labeled streptavidin (streptavidin-5 nm gold particles, Invitrogen cat. # A32360), sequence (P22629 37-163 limits assumed, one chain of several): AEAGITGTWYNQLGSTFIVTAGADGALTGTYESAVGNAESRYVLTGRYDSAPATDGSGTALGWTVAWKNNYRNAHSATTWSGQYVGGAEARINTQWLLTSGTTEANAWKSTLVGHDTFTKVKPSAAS

As for B1, the binding result is recorded as “no binding” in data set [1], “binds” in data set [2] and “binds” in data set [3]. Take B2: the binding result in data set [4] was “binds”. As to B3, the binding result in data set [5] is listed as “binds”. As to MALKVELEKLKSELVVLHSELHKLKSEL [βTail peptide], the binding result in data set [6] and in data set [2] was “binds” in each case.
